The record followed here is the supplement of paper PMC9170038.

In the data set the test system is MS2 coat protein. The experiment in a line: apparent KD of MS2 coat protein; designed switch direction (-1 OFF switch, 1 ON switch): 1; higher = weaker reporter binding. In short, it runs like this:
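For each design, the apparent KD is the median over clusters of curves fitted to normalised cluster fluorescence. Clusters held RNA switches with common flanks, transcribed on Illumina chips by stalled E. coli RNA polymerase. These were titrated with SNAP-549-labelled MS2 coat protein, doubling from 0.7 or 1.5 nM to 3 µM, without input, with 200 uM small-molecule ligand, or with an oligonucleotide input.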

Where [1] appears, read: input ligand: microRNA oligo, concentration not stated.
Where [2] appears, read: Eterna round: R95, input ligand: FMN 200 uM.
The mark [3] stands for this setting: Eterna round: R95, input ligand: microRNA oligo, concentration not stated.
Where [4] appears, read: Eterna round: R95, input ligand: none.

Take “AGAUCAUGACGAGGAUAUCCGACAUGAGGAUCACCCAUGUAUGUCGGAGGACGCGUACGUCCAAAGGAGAAGGCGUCGUGGUCA [JL SSNG2 1.02] (Eterna round: R96, puzzle: Same State NG 2)”: the “apparent KD of MS2 coat protein” value runs as follows: (input ligand: FMN 200 uM) 17.4 nM; under setting [1], 48.4 nM; (input ligand: none) 100 nM.
Consider “AGAUCAUGACGAGGAUAUGCGACAUGAGGAUCACCCAUGUAUGUUGCAGGACGCGUACGUCCAAUGUAGAAGGCGUCGUGGUCA [JL SSNG2 1.05] (Eterna round: R96, puzzle: Same State NG 2)”, for which the “apparent KD of MS2 coat protein” value turned out to be 22.8 nM (input ligand: FMN 200 uM), 65.1 nM under setting [1] and 88.7 nM (input ligand: none).
For the sequence “AGAUCAUGACGAGGAUAUGGAACAUGAGGAUCACCCAUGUAUGUUCCAUAACGCGAAUGACGAAUCCAGAAGGCGUCGUGGUCA [JL SSNG2 1.10] (Eterna round: R96, puzzle: Same State NG 2)”, the “apparent KD of MS2 coat protein” value worked out at 15.6 nM (input ligand: FMN 200 uM), 112 nM under setting [1] and 168 nM (input ligand: none).
On to “AGAUCAUGACGAGGAUAUGGUACAUGAGGAUCACCCAUGUAUGUACCACGACGCGUACGUCGAAUCCAGAAGGCGUCAUGGUCA [Mat - Same State NG 2 - JL mod - D17] (Eterna round: R96, puzzle: Same State NG 2)”, for which the “apparent KD of MS2 coat protein” value is 17.8 nM (input ligand: FMN 200 uM), 51.3 nM under setting [1] and 119 nM (input ligand: none).
On to “AGAUCAUGACGAGGAUAUGGUACAUGAGGAUCACCCAUGUAUGUACCACGACGCGUACGUCGAAUCCAGAAGGCGUCGUGGUCA [JL SSNG2 1.07] (Eterna round: R96, puzzle: Same State NG 2)”, for which the “apparent KD of MS2 coat protein” value (input ligand: FMN 200 uM) came out at 23.3 nM, the “apparent KD of MS2 coat protein” value under setting [1] stood at 27.7 nM and the “apparent KD of MS2 coat protein” value (input ligand: none) is 41.6 nM.
Consider “AGAUCAUGACGAGGAUAUGGUACAUGAGGAUCACCCAUGUAUGUACUAUAAUCCGAAUGAGGAAUCCAGAAGGCGUCGUGGUCA [JL SSNG2 1.14] (Eterna round: R96, puzzle: Same State NG 2)”, for which the “apparent KD of MS2 coat protein” value reads like this: (input ligand: FMN 200 uM) 44.9 nM; under setting [1], 94.1 nM; (input ligand: none) 145 nM.
On to “AGCAUACAUGAGGAUCACCCAUGUCAACUUAGUCGAGGAUAUGGGCAGCCCUGAGGCGAACCAGAAGGCGAAUUGA [Mat - Same State 1 - Mod of JL - D1] (puzzle: Same State 1)”, for which the “apparent KD of MS2 coat protein” value reads like this: under setting [2], 28.3 nM; under setting [3], 51.5 nM; under setting [4], 66.1 nM.
As for “AGCCGAAGCGCAGGAUAUACAUGUAUACAUGAGGAUCACCCAUGUAGCAACACGUGGUAGUGAUUGUAGAAGGGUGCUCGGCGC [Omei SS(NG)2 Cv15] (Eterna round: R96, puzzle: Same State NG 2)”, the “apparent KD of MS2 coat protein” value under setting [1] came out at 18.6 nM.
With “AGCUAUUAAUCAGGAUAUGGUCACAUGAGGAUCACCCAUGUAACGAUGAUAUAAUGUGGUCAAAACUAGAAGGGAUUGCUAACA [SameState NG2 #65] (Eterna round: R96, puzzle: Same State NG 2)”, the “apparent KD of MS2 coat protein” value reads like this: (input ligand: FMN 200 uM) 341 nM; under setting [1], 216 nM; (input ligand: none) 290 nM.
With “AGCUAUUAAUCAGGAUAUGGUCACAUGAGGAUCACCCAUGUAACGAUGAUAUAAUGUGGUCAAGACUAGAAGGGAUUGCUAACA [SameState NG2 #66] (Eterna round: R96, puzzle: Same State NG 2)”, the “apparent KD of MS2 coat protein” value reads like this: (input ligand: FMN 200 uM) 169 nM; under setting [1], 221 nM; (input ligand: none) 191 nM.
Taken in the same sequence, the figures for “AGCUAUUAAUCAGGAUAUGGUCACAUGAGGAUCACCCAUGUGUAGAUGAUAAAAUGUGGUCUACACUAGAAGGGAUUGCUAACA [SameState NG2 #60] (Eterna round: R96, puzzle: Same State NG 2)” were 524 nM, 216 nM and 236 nM.
As to “AGCUAUUAAUCAGGAUAUGGUGACAUGAGGAUCACCCAUGUAUAGAUGAUUAAAUGUGGUCUAAACUAGAAGGGAUUACUAACA [SameState NG2 #54] (Eterna round: R96, puzzle: Same State NG 2)”, the “apparent KD of MS2 coat protein” value by setting is: (input ligand: FMN 200 uM) 156 nM; under setting [1], 283 nM; (input ligand: none) 268 nM.
In the same order, the values of “AGCUAUUACGAAGGAUAUUCUGACAUGAGGAUCACCCAUGUCUUCAUGAUUUAUUGUGAUCACGUGAAGAAGGUUGUACUAACA [SameState NG2 #26] (Eterna round: R96, puzzle: Same State NG 2)” are 66.4 nM, 72.2 nM and 72.2 nM.
Taken in the same sequence, the figures for “AGGACGAGCACAGGAUAUCCACGGAAAAGACGCGGAGAAGGGUGAAGUCAUGGAAAGAAAAGACAUGAGGAUCACCCAUGUAAA [Dibema] (Eterna round: R96, puzzle: Same State NG 1)” were 26.2 nM, 20.5 nM and 28.4 nM.
Turning to “AGGCGGAUAUCACAGGAUAUGUGCGCGUUCACAUGAGGAUCACCCAUGUAAAGGACGAGCCAAAAGCAGAAGGGUGACCACGCGA [Aedorlebe] (puzzle: Same State 2)”, the “apparent KD of MS2 coat protein” value by setting is: under setting [2], 15.3 nM; under setting [3], 14.8 nM; under setting [4], 25.4 nM.
On to “AGGCUCAGACGAGGAUAUAUGUGAUCACAUGAGGAUCACCCAUGUCUCGAGCUUCGGCUCGAGACAUAGAAGGCGUCUGAGCCA [SSNG2/3-A1] (Eterna round: R96, puzzle: Same State NG 2)”, for which the “apparent KD of MS2 coat protein” value came out at 505 nM (input ligand: FMN 200 uM), 8.91 nM under setting [1] and 21.4 nM (input ligand: none).
For “AGGUAACAUGAGGAUCACCCAUGUAAGGUGAACGUAGGAUAUCGAAGAGGUAGGGUAGGACGAGAAGGACGAGGAA [JR_SS1_Sub092] (puzzle: Same State 1)”, the “apparent KD of MS2 coat protein” value amounted to 347 nM under setting [2], 346 nM under setting [3] and 481 nM under setting [4].
As for “AGUAUUAAUGCAGGAUAUGAUUAACAUGAGGAUCACCCAUGUGGUGUUGUGAGUAAGGAGAGUGAUCAGAAGGGCAUUUUUUUU [JMF's solution 38] (Eterna round: R96, puzzle: Same State NG 2)”, the “apparent KD of MS2 coat protein” value reads like this: (input ligand: FMN 200 uM) 414 nM; under setting [1], 175 nM; (input ligand: none) 502 nM.
Turning to “AGUCCAGCAAGAGCUGGACAAAAGCAUGUACAUGAGGAUCACCCAUGUUCAUGUACAAGCUUUUUGCUCGUCAAAAG [Mat - hsa-mir-208a - Mod of JL - 72] (puzzle: Sensor for hsa-mir-208a)”, the “apparent KD of MS2 coat protein” value reads like this: under setting [2], 216 nM; under setting [3], 19.9 nM; under setting [4], 318 nM.
On to “AGUCCAGCCUAAGCUGGACAAAAGCAUGUACAUGAGGAUCACCCAUGUUCAUGUACAAGCUUUUUGCAAGUCAAAAG [Mat - hsa-mir-208a - Mod of JL - 76] (puzzle: Sensor for hsa-mir-208a)”, for which the “apparent KD of MS2 coat protein” value under setting [2] turned out to be 350 nM, the “apparent KD of MS2 coat protein” value under setting [3] stood at 28.1 nM and the “apparent KD of MS2 coat protein” value under setting [4] was 664 nM.
As to “AGUCCAGCCUAAGCUGGACAAAAGCAUGUACAUGAGGAUCACCCAUGUUCAUGUACAAGCUUUUUGCUCGUCAAAAG [Mat - hsa-mir-208a - Mod of JL - 68] (puzzle: Sensor for hsa-mir-208a)”, the “apparent KD of MS2 coat protein” value is, setting by setting: under setting [2], 194 nM; under setting [3], 19.6 nM; under setting [4], 242 nM.
In the case of “AGUCCAGCCUAAGCUGGACAAAAGCAUGUACAUGAGGAUCACCCAUGUUCAUGUACAAGCUUUUUGCUCGUCUUAAG [Mat - hsa-mir-208a - Mod of JL - 65] (puzzle: Sensor for hsa-mir-208a)”, the “apparent KD of MS2 coat protein” value by setting is: under setting [2], 864 nM; under setting [3], 18.7 nM; under setting [4], 844 nM.
Turning to “AGUCCAGCCUGAGCUGGACAAAAGCAUGUACAUGAGGAUCACCCAUGUCAUGUACAAGCUUUUUGCACGUCUUAAAA [Mat - hsa-mir-208a - Mod of JL - D13] (puzzle: Sensor for hsa-mir-208a)”, the “apparent KD of MS2 coat protein” value is, setting by setting: under setting [2], 1120 nM; under setting [3], 16.4 nM; under setting [4], 542 nM.
Consider “AGUCCAGCCUGAGCUGGACAAAAGCAUGUACAUGAGGAUCACCCAUGUCAUGUACAAGCUUUUUGCUCGUCAUAAAA [Mat - hsa-mir-208a - Mod of JL - D8] (puzzle: Sensor for hsa-mir-208a)”, for which the “apparent KD of MS2 coat protein” value is, setting by setting: under setting [2], 578 nM; under setting [3], 14.7 nM; under setting [4], 651 nM.
“AGUCCAGCCUGAGCUGGACAAAAGCAUGUACAUGAGGAUCACCCAUGUUAUGUACAAGCUUUUUGCUCGUUUUAAUA [Zipper 49 - 15] (puzzle: Sensor for hsa-mir-208a)”: the “apparent KD of MS2 coat protein” value runs as follows: under setting [2], 191 nM; under setting [3], 13.1 nM; under setting [4], 199 nM.
On to “AGUCCAGCCUGAGCUGGACAAAAGUAUGUACAUGAGGAUCACCCAUGUCAUGUACAAGCUUUUUGCUCGUUUUAAUA [Zipper 49 - 17] (puzzle: Sensor for hsa-mir-208a)”, for which the “apparent KD of MS2 coat protein” value was determined as 424 nM under setting [2], 33.8 nM under setting [3] and 517 nM under setting [4].
Take “AGUCCAGCGAAAGCUGGACAAAAGCAUGUACAUGAGGAUCACCCAUGUUCGUGUACAAGCUUUUUGCUCGUCUUAAA [JL mod - D95 - 5] (puzzle: Sensor for hsa-mir-208a)”: the “apparent KD of MS2 coat protein” value by setting is: under setting [2], 536 nM; under setting [3], 14.6 nM; under setting [4], 554 nM.
